Reference: US20240245856A1, “Electromechanical Devices for the Burst Release of Indefinitely Stable Dry Powder Drugs” (Massachusetts Institute of Technology, priority 2023, published 2024)
Like-named read-outs stand apart in the source and are kept apart here.

Tests used:
[1] = In vivo IVIS fluorescence imaging of release from subcutaneously implanted device; parameters: species or system mice; details: for biodistribution (IVIS imaging of major organs): organs imaged 40 minutes after subcutaneous release
Procedure: Imaging studies with fluorescently labeled lyophilized insulin-dye conjugates (Ins-Cy7) validate burst release in vivo, over timescales of about 10 minutes. Devices (e.g., device 100) were implanted in subcutaneous sites, with release apertures 171 facing into muscle beds (the complete surgical implantation procedure is disclosed below).
An equivalent set of studies with glucagon conjugated with cy7 (GCG-cy7) reveal similar release profiles as illustrated in FIG. 5A with strong fluorescence visible within the first 20 minutes following release. […] As shown herein, dry-powder injection directly into subcutaneous sites may function as a mechanism to both maintain long-term drug stability and ensure rapid action following release.
Animals were anesthetized via isoflurane and placed in an in vivo imaging system (IVIS). Baseline fluorescent measurements tuned to emission peaks of cy7 (exposure time 3 seconds, 640 nm<wavelength<840 nm) established pre-release fluorescence profiles. A primary antenna placed in close proximity to the device for about 1 minute induced wireless drug release. Sequential imaging following release at intervals of about 5 minutes then allowed for imaging of fluorescence signals resulting from drug dissolution and diffusion. […]

healthy C57/BL6J mice = details: for time after release at which increase in BG is evident / time after release at which increase in HR is evident: 1 mg pill, 5%-95% Epinephrine-Lactose, subcutaneous, mice
Procedure: To test this, studies with epinephrine, a naturally occurring circulating neurotransmitter hormone produced by the adrenal medulla, were performed and used as emergency medication in the treatment of anaphylaxis, cardiac arrest, asthma, and hypotension. Epinephrine release targets adrenergic receptors is accompanied by increases in heart rate (HR).
In vivo epinephrine release involved studies on anesthetized adult, male, healthy C57/BL6J mice. Mice were implanted with emergency rescue devices containing epinephrine doses of 1.4 mg/kg via the surgical procedures described above and allowed to recover for a 3-day period. On day 3, mice were carefully anesthetized via the flow of 1% isoflurane, and hair around the dorsal neck region was removed via the application of a depilatory cream (e.g., Nair). A collar-mounted optical probe (e.g., a MouseOx, Starr Life Science, Oakmont, PA) was then used to track heart rate. Additional biomarkers measured by the probe included oxygen saturation (SpO2), pulse-width distension (a measure of blood flow) and breath rate. Animals were monitored until their heart rate reached steady values of 380-400 bpm. A primary transmitter antenna was then brought into close proximity for 2-5 minutes to induce wireless release. Anesthetized animals were then monitored via optical probe measurements for 30 minutes, followed by euthanasia and explantation to evaluate opening and drug dissolution.

[2] = system: C57/BL6 mice with chemically induced diabetes via Streptozotocin (STZ); assay: Post-fasting glucagon release in diabetic mice (blood glucose); type: in vivo; details: glucagon release studies in diabetic mice
Procedure: In an initial set of experiments (results shown in FIG. 5C) mice were fasted to induce mild hypoglycemia baseline BG 113±1.9 mg dl^−1). Wireless release is triggered at time t=0 minutes by placing the awake, freely moving mice in a modified enclosure capable of providing wireless power at 13.56 MHz. Successive measurements then reveal a rapid rise in BG measurements relative to baselines, with a peak value ([…]) occurring at tmax=15 minutes following release. […] Following release, explantation confirmed complete opening and dissolution of the pills (FIG. 22).
0.5 μl volumes of blood were collected via tail-pricks with 25-27G and measured with a commercial handheld blood glucose meter (e.g., a Clarity, BG1000). The upper limit of measurements is 600 mg/dl on these systems and values above this were recorded as 600 mg/dl for analysis. Non-fasting values were recorded for 7-10 days following implantation, after which BG values were recorded following a 2.5 hour fast. Mice were weighed before and after fasting periods. Measurements in experimental groups (O2, Non O2 controls) were recorded in triplicate to account for any variability in readings and averaged.
(i) Post-fasting studies: These studies were performed […] after device implantation in STZ-induced diabetic BL6 mice. […] BG values recorded immediately following release served as t=0 minutes measurements. […]

[3] = cited from earlier work
[4] = HPLC drug dissolution testing of glucagon pills in PBS; type: physicochemical; details: 37° C., across a range of loading fractions
Description: Capabilities in closed-loop burst release enabled by wireless communication between commercially available biosensors and emergency rescue devices represent a feature of this technology. One example is the combination of glucagon release with CGM technology for fully closed-loop glucose-responsive hypoglycemic rescue during periods of sleep or hypoglycemia unawareness and in pediatric patients who are unable to self-administer glucagon. […] Benchtop testing in a physiological mimic glucose solution was also performed. […]
Several known concentrations of glucagon (x, unit μM) were tested with the HPLC and the corresponding absorbance peak areas (y, A.U.) were measured. […] This equation yields glucagon concentrations of testing solutions at different time points via measurements of absorbance peak areas. […]
HPLC was performed under the following conditions using an Agilent InfinityLab Poroshell 120 (EC-C18, 4.6 mm×100 mm, 2.7 μm particle size) at 25° C., using 0.1% formic acid in water (solvent A) and acetonitrile (solvent B) at 0.6 ml/min. […] Glucagon UV absorption was monitored at 280 nm with retention time (Rt)=19.2 min.

[5] = system: blood glucose concentrations; details: administration for acute hypoglycemia; cited from earlier work
[6] = 30 minutes after release, 1 mg pill 5%-95% Epinephrine-Lactose, n=3

GCG-cy7: glucagon conjugated with cy7; 1-mg glucagon-lactose (4%-96% by weight) pill labeled with fluorescent dye
biodistribution (IVIS imaging of major organs) [1]: confinement to liver site | time after release at which strong fluorescence is visible ([1]; release 2 days after subcutaneous implantation): ≤ 20 min

Ins-Cy7: fluorescently labeled lyophilized insulin-dye conjugates; 1 mg Insulin-cy7-Lactose (4%-96% by weight) pills
fluorescence before wireless release ([1]; implanted sealed device, until release 7 days after implantation): no detectable fluorescence | biodistribution (IVIS imaging of major organs) [1]: confined to the liver | timescale of burst release in vivo ([1]; subcutaneous device, mice, IVIS): about 10 minutes | time after release at which fluorescence is detectable ([1]; subcutaneous site, release on day 7): ≤ 5 min | increase in local fluorescence intensity (ROI) ([1]; within the first 15 minutes following release, n=3 mice): roughly tenfold

CNC[C@H](O)c1ccc(O)c(O)c1 [Epinephrine]
time after release at which increase in BG is evident (healthy C57/BL6J mice): ≤ 10 min | time after release at which increase in HR is evident (healthy C57/BL6J mice): ≤ 10 min | time after release at which increase in BG is evident (healthy C57/BL6J mice; listed as epinephrine): ≤ 5 min | time after release at which increase in HR is evident (healthy C57/BL6J mice; listed as epinephrine): ≤ 5 min | ΔBG (healthy C57/BL6J mice; [6]): 66 ± 23 mg/dL | ΔHR (healthy C57/BL6J mice; [6]): 140±33 bpm | correlation of other biomarkers (heart rate, SpO2, pulse-width distension) with release (healthy C57/BL6J mice; pills at 0.3 mg/kg and 1.5 mg/kg versus sham implants): weak correlation

glucagon
time to increase in blood glucose after release [2]: < 10 min | stability in solution [3]: < 1 days | dissolution of dry powder drug (HPLC) [4]: rapid dissolution | time to increase in blood glucose concentrations [5]: < 10 min
